According to publication PMC8216470, “The structure of the mouse ADAT2/ADAT3 complex reveals the molecular basis for mammalian tRNA wobble adenosine-to-inosine deamination” (Nucleic Acids Research, 2021):

Target: the molecule itself
Experiment: SEC; oligomeric state of the protein produced alone, as assessed by size exclusion chromatography

| Protein | stoichiometry N |
| --- | --- |
| mouse ADAT2 (enzyme, UniProt Q6P6J0 1-191, looked up, tRNA-specific adenosine deaminase 2 (ADAT2), mouse, full-length gene amplified from E16.5 cortices, NCBI NM_025748.4; cloned in pnCS, which codes for no fusion tag; residues 11-176 seen in the electron density; the untagged pnCS construct is told only for the co-expression; also called A2; ADAT2/ADAT2 (homodimer, when produced alone); source: E. coli BL21(DE3), co-expressed with ADAT3, purified …) MEEKVESTTTPDGPCVVSVQETEKWMEEAMRMAKEALENIEVPVGCLMVYNNEVVGKGRNEVNQTKNATRHAEMVAIDQVLDWCHQHGQSPSTVFEHTVLYVTVEPCIMCAAALRLMKIPLVVYGCQNERFGGCGSVLNIASADLPNTGRPFQCIPGYRAEEAVELLKTFYKQENPNAPKSKVRKKDCQKS | 2 |
| Escherichia coli TadA (enzyme, E. coli, UniProt P68398 1-167, looked up, tRNA-specific adenosine deaminase TadA, Escherichia coli; also called E. coli TadA; source: produced and purified using the same protocol as for the ADAT complex (E. coli BL21(DE3); Talon, 3C protease, HiTrap Q, Superdex 200)) MSEVEFSHEYWMRHALTLAKRAWDEREVPVGAVLVHNNRVIGEGWNRPIGRHDPTAHAEIMALRQGGLVMQNYRLIDATLYVTLEPCVMCAGAMIHSRIGRVVFGARDAKTGAAGSLMDVLHHPGMNHRVEITEGILADECAALLSDFFRMRRQEIKAQKKAQSSTD | 2 |
